Source: US6399759B1, “Ant proteases and methods of inhibition” (University of Georgia Research Foundation, Inc., priority 1999, dated 2002)

B1: Lima Bean Trypsin Inhibitor: lima bean trypsin inhibitor from Sigma (protein)
chain: SGHHEHSTDXPSXSSKPCCXHCACTKSIPPQCRCTDLRLDSCHSACKSCICTLSIPAQCVCXXIXDFCYEPCKSSHSDDDNNN
modifications: not fully specified
B2: Eglin C: naturally occurring protease inhibitor obtained from Ciba Geigy (protein)
chain: TEFGSELKSFPEVVGKTVDQAREYFTLHYPQYDVYFLPEGSPVTLDLRYNRVRVFYNPGTNVVNHVPHVG
B3: Soy Bean Trypsin Inhibitor I-S: soybean trypsin inhibitor Type I-S from Sigma (protein)
chain: DFVLDNEGNPLENGGTYYILSDITAFGGIRAAPTGNERCPLTVVQSRNELDKGIGTIISSPYRIRFIAEGHPLSLKFDSFAVIMLCVGIPTEWSVVEDLPEGPAVKIGENKDAMDGWFRLERVSDDEFNNYKLVFCPQQAEDDKCGDIGISIDHDDGTRRLVVSKNKPLVVQFQKLDKESL

How the values were obtained:
Test in all cases: Inhibition of amidolytic activity by naturally occurring protease inhibitors
Settings in all cases: 10 minutes incubation at 25° C. in 50 mM Tris-HCl, 100 mM NaCl, pH 7.4
Soli C1 = target: T1, Soli C1 (Solenopsis invicta, UniProt Q7SIG2); assay type: biochemical
T1 construct: Fourth instar larvae were extracted in a 1:10 (weight/volume) ratio of 20 mM Tris-HCl pH 7.4; from tissue; host or cells: whole Solenopsis invicta 4th instar larvae (buffer extract, acetone precipitation, Q Sepharose peak III, Mono Q, Superdex 75)
T1 sequence (Q7SIG2 whole entry): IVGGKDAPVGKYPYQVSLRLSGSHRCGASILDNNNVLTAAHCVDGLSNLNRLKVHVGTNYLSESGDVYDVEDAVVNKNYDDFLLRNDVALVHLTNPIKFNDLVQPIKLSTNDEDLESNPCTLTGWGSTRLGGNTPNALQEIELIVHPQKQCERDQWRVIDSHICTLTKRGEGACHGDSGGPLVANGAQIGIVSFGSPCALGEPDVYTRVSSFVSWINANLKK
Experimental: (§1) Enzyme Assay—Generally, the amidolytic activities of each proteinase were measured with the substrates MeOSuc-Ala-Ala-Pro-Val-pNA (SEQ ID NO:8) and N-Suc-Ala-Ala-Pro-Phe-pNA (SEQ ID NO:7) in 0.05 M Tris-HCl and 100 mM NaCl pH 7.4 (assay buffer). Release of the pNA group was assayed by monitoring the optical density of the test solution at […]. Enzyme inhibition assays by protein inhibitors were conducted in the same assay buffer using an inhibitor concentration ranging from 0.02-50 nM with a 10 minute preincubation time and with the final enzyme concentration being 1.0 nM. All kinetic studies with substrates and inhibitors were performed at the optimum pH of the individual proteinases, utilizing the following buffers: 150 mM NaCl, 50 mM Tris-HCl pH 8.0 (E1); 150 mM NaCl, 50 mM CHES pH 9.5 (E2 and C2); and 150 mM NaCl, 50 mM CAPS pH 10.0 (C1).

Soli C2 = assay type: biochemical, Solenopsis invicta
Experimental: as §1

Soli E1 = assay type: biochemical, Solenopsis invicta
Experimental: as §1

Soli E2 = assay type: biochemical, Solenopsis invicta
Experimental: as §1

Molecule	IC50 Soli C1 (Soli C1)	IC50 Soli C2 (Soli C2)	IC50 (Soli C1) [nM]	IC50 (Soli E1) [nM]	IC50 (Soli C2) [nM]	IC50 (Soli E2) [nM]
B1	active	active	–	–	–	–
B2	–	–	1.24	3.93	0.442	1.89
B3	–	–	37	4.22	1.41	5.58
